According to patent US20240052052A1 (ANTENGENE BIOLOGICS, published 2024):
Where a chain is given by its changes, count along the chain named.

T1: human CD24 (human, UniProt P25063 27-59, heavily glycosylated, GPI-anchored (as described in the background))
T1 construct: whole, on cells; Target of all cell-based FACS assays; also called hCD24; Cluster of differentiation 24
T1 chain (looked up): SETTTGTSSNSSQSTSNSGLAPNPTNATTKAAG

B1: ch33E7E12-hIgG1 (antibody, V domains shown)
VH: EVKLEESGGGLVQPGGSMKLSCFVSGFTFSNSWMNWVRQSPEKGLEWVAQIQLKSDNYATRYVESVRGRFIISRDDSKSSVSLQMNNLRTEDTGIYYCSSGTDYWGQGTTLTVSS
VL: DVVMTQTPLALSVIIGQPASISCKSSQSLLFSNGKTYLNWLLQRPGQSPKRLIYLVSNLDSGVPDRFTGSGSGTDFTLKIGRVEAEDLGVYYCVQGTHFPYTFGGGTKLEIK
notes: chimeric
B2: ch33E7E12-hIgG4 (antibody, V domains shown)
VH: B1 VH
VL: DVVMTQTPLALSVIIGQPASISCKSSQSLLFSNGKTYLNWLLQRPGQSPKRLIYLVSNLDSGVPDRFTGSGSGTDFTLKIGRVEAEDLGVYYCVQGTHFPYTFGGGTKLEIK
notes: chimeric
B3: 33E7E12 (antibody, V domains shown)
VH: B1 VH
VL: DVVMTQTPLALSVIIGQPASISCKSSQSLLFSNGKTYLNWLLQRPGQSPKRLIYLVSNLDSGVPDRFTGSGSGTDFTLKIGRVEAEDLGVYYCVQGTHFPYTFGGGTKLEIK
notes: mouse monoclonal antibody
B4: ch81A1F8-hIgG4 (antibody, V domains shown)
VH: EVQLQQSGPELVKPGASVKISCKATGYLFTGYYMNWVKQSPEKSLEWIGEINPNTGDTNNNQKFKAKATMTVDRSSSTAYMQLKRLTSEDSAVYYCVRRDYGTSLDYWGQGTTLTVSS
VL: DVQITQSPSYLAASPGETITINCRASKSINKYLAWYQEKPGKTNKLLIHSGSTLQSGIPSRFSGSRSGTDFTLTISNLEPEDFAMYYCQQHNEYPITFGAGTKLELK
notes: chimeric; also called chAb81A1F8; ch81A1F8-IgG4
B5: ch110D4G4-hIgG4 (antibody, V domains shown)
VH: EVQLQQSGPGLVKPGASVKISCRASGYLFTGYYMNWVKQSPEKSLEWIGEINPNTGDPRYDQKFKAKATLTVDRSSSTAYMHLKSLTSEDSAVYFCARRDYGTSLDYWGQGTTLTVTS
VL: B4 VL with N30S, H49Y, R66G, T69S, N77S, I96L
notes: chimeric; also called chAb110D4G4
B6: ch100F2E3-hIgG4 (antibody, V domains shown)
VH: QVQLQQPGAELVRPGSSVKLSCKTSDYTFTSYWMDWVKQRPGQGLEWIGNIYPSDSKTHSNQKFRDKATLTVDKSSSTAYMQLNSLTSEDSAVYYCARRGGYYGYAMDYWGQGTSVTVSS
VL: DIVMTQSPSSLSVSAGEKVTMSCKSSQSLLNSGNQDNYLAWYQQKPGQPPKLLIYGASIRESGVPDRFTGSGSGTDFTLTISSVQAEDLAVYYCQNDHSYPYTFGGGTKLEIK
notes: chimeric
B7: 100F2E3 (antibody, V domains shown)
VH: B6 VH
VL: B6 VL
notes: mouse monoclonal antibody
B8: ch56A7E3-hIgG4 (antibody, V domains shown)
VH: EVQLQQSGPELVKPGASVKIPCKASGYTFTAYNMDWVKQSHGMSLEWIGDINPINGGTIYNQNFEGKATLTVDKSSSTAYLELRSLTSEDTAVYYCARRGSYYYGSSHYALDFWGQGTSVSVSS
VL: DIQMTQITSSLSASLGDRVTITCRASQDISNYLNWYQQKPDGTVKLLIYYTSRLLSGVPSRFSGSGSGTDYSLTISNLEQEDIATYFCQQDHTLPRTFGGGTKLEIR
notes: chimeric
B9: ch81A7A10-hIgG4 (antibody, V domains shown)
VH: QVQLKESGPGLVAPLQSLSITCTVSGFSLSSYGVSWVRQLPGKGLEWLGVIWGDGSTDYHSTLTSRLSFSKDNSESQVFLKLNSLQTDDTATYYCAIFYGYDEGFAYWGQGTLVTVSA
VL: ENVLTQSPAIMSAFLGEKVTMSCRASSTVNYMYWYQQKSDASPKVWIYYTSRLAPGVPARFSGSGSGNSFSLTISSMEGEDAATYYCQQFTSSPLTFGAGTKLELR

Molecular target: T1, human CD24
Assay: FACS, Nalm1 cells
Method: (§1) Sequences of some of antibodies from Table 1 were selected to generate and produce human IgG4 chimeric antibodies. […] The protocol for FACs analysis is described as follows: [0536] a. Digested cells using TrypLE™ Express Enzyme (IX); Centrifuged the harvested cells at 400 g for 5 min and discarding the supernatant. [0537] b. Washed the cells 2 times with cold FACS buffer by centrifuging at 400 g for 5 min and discarding the supernatant. [0538] c. […] Incubate at […] for 1 h. [0539] d. Washed the cells twice by using the condition in step b. Resuspended the cells with 100 μl/well diluted 2nd antibody, incubated at 4 degree for 1 h in the dark. [0540] e. Washed the cells twice by using the condition in step b. Resuspended the cells with 100 μl/well cold FACS buffer. Kept the cells in dark for FACS analysis.

EC50 [nM] | Max MFI | Binder
5.8 | 109000 | B1
11.8 | 34400 | B2
6.2 | 45500 | B3
1.31 | 101000 | B4
1.95 | 111000 | B5
2.78 | 77700 | B6
8.88 | 58800 | B7
66.4 | 80300 | B8

Molecular target: T1, human CD24
Assay: FACS, MCF7 cells
Method: (§2) Screening & Expansion: The subcloning plates were screened by Acumen assay and the subclones with good binding ability were expanded to 24-wells for confirmation tests. The specificity and cross-reactivity of these subclones were confirmed with FACs analysis. […] Fluorescent dye-conjugated secondary antibody was used to detect the binding of the primary antibody with the cells. Median fluorescence intensity (MFI) was measured by FACs analysis.

FACS MFI | Binder
5410 | B3
7160 | B7

Molecular target: T1, human CD24
Assay: FACS, Nalm1 cells
Remark: another data set of the same source
Method: as §2

FACS MFI | Binder
45500 | B3
58800 | B7

Molecular target: T1, human CD24
Assay: FACS, MCF7 cells
Remark: another data set of the same source
Method: as §1

EC50 [nM] | Max MFI | Binder
4.35 | 20600 | B1
4.75 | 16100 | B2
2.38 | – | B3
2.31 | 25400 | B4
2.01 | 22700 | B5
6.85 | 7960 | B6
8.08 | – | B7
83.7 | 22800 | B8

Molecular target: T1, human CD24
Assay: FACS, 293F-hCD24 cells
Method: as §2

FACS MFI | Binder
24200 | B3
44100 | B7

Molecular target: T1, human CD24
Assay: FACS, MDA-MB-468 cells
Method: as §1

EC50 [nM] | Max MFI | FACS MFI | Binder
9.07 | 56700 | – | B1
6.8 | 20100 | – | B2
3.45 | – | 10900 | B3
5.75 | 90800 | – | B4
5.44 | 89700 | – | B5
7.39 | 71900 | – | B6
19.6 | – | 44000 | B7
18.7 | 54200 | – | B8

Molecular target: T1, human CD24
Assay: FACS, CHOK1-hCD24 cells
Method: as §1

EC50 [nM] | Max MFI | Binder
2.27 | 62100 | B1
2.66 | 56600 | B2
1.86 | 24100 | B3
3240 | 85300 | B4
35.4 | 99500 | B5
> 100 | 59300 | B6
1.71 | 22300 | B7
3.04 | 54100 | B8

Molecular target: T1, human CD24
Assay: cell-based or functional assay

EC50 (nM), phagocytosis against HT-29 cells [nM] | Max phagocytosis Index (%), phagocytosis against HT-29 cells [%] | Binder
0.157 | 78.4 | B9
0.042 | 80.4 | B1
3.25 | 33.3 | B2
0.098 | 76.6 | B4
1.9 | 71.2 | B6
4.74 | 55.2 | B8

Molecular target: T1, human CD24
Assay: FACS, 5637 cells
Method: as §2

FACS MFI | Binder
14100 | B3
22100 | B7

Molecular target: T1, human CD24
Assay: FACS, HT-29 cells
Method: as §1

EC50 [nM] | Max MFI | Binder
3.4 | 2450 | B3
9.55 | 2420 | B7

Molecular target: T1, human CD24
Assay: FACS, 293F-hCD24 cells
Remark: another data set of the same source
Method: as §1

EC50 [nM] | Max MFI | Binder
3.55 | 80900 | B1
4.56 | 55200 | B2
2.4 | 24200 | B3
3.35 | 117000 | B4
2.82 | 112000 | B5
3.73 | 60400 | B6
11.4 | 44100 | B7
3.7 | 57100 | B8

Molecular target: T1, human CD24
Assay: FACS, H1975 cells
Method: as §2

FACS MFI | Binder
6110 | B3
6900 | B7

Molecular target: T1, human CD24
Assay: FACS, H1975 cells
Remark: another data set of the same source
Method: as §1

EC50 [nM] | Binder
8.15 | B3
10 | B7

Molecular target: T1, human CD24
Assay: FACS, A549 cells
Method: as §1

EC50 [nM] | Max MFI | Binder
6.58 | 8670 | B7

Molecular target: T1, human CD24
Assay: FACS, 5637 cells
Remark: another data set of the same source
Method: as §1

EC50 [nM] | Max MFI | Binder
6.44 | 42900 | B1
7.27 | 25600 | B2
4.37 | – | B3
2.47 | 54100 | B4
2.18 | 49900 | B5
3.42 | 20200 | B6
9.47 | – | B7
139 | 61100 | B8
